Results taken from IntAct's records for PubMed 22244754.

B1: Phosphatidylinositol 3,4,5-trisphosphate 5-phosphatase 2 (Homo sapiens), O15357-1 (parent)
chain: MASACGAPGPGGALGSQAPSWYHRDLSRAAAEELLARAGRDGSFLVRDSESVAGAFALCVLYQKHVHTYRILPDGEDFLAVQTSQGVPVRRFQTLGELIGLYAQPNQGLVCALLLPVEGEREPDPPDDRDASDGEDEKPPLPPRSGSTSISAPTGPSSPLPAPETPTAPAAESAPNGLSTVSHDYLKGSYGLDLEAVRGGASHLPHLTRTLATSCRRLHSEVDKVLSGLEILSKVFDQQSSPMVTRLLQQQNLPQTGEQELESLVLKLSVLKDFLSGIQKKALKALQDMSSTAPPAPQPSTRKAKTIPVQAFEVKLDVTLGDLTKIGKSQKFTLSVDVEGGRLVLLRRQRDSQEDWTTFTHDRIRQLIKSQRVQNKLGVVFEKEKDRTQRKDFIFVSARKREAFCQLLQLMKNKHSKQDEPDMISVFIGTWNMGSVPPPKNVTSWFTSKGLGKTLDEVTVTIPHDIYVFGTQENSVGDREWLDLLRGGLKELTDLDYRPIAMQSLWNIKVAVLVKPEHENRISHVSTSSVKTGIANTLGNKGAVGVSFMFNGTSFGFVNCHLTSGNEKTARRNQNYLDILRLLSLGDRQLNAFDISLRFTHLFWFGDLNYRLDMDIQEILNYISRKEFEPLLRVDQLNLEREKHKVFLRFSEEEISFPPTYRYERGSRDTYAWHKQKPTGVRTNVPSWCDRILWKSYPETHIICNSYGCTDDIVTSDHSPVFGTFEVGVTSQFISKKGLSKTSDQAYIEFESIEAIVKTASRTKFFIEFYSTCLEEYKKSFENDAQSSDNINFLKVQWSSRQLPTLKPILADIEYLQDQHLLLTVKSMDGYESYGECVVALKSMIGSTAQQFLTFLSHRGEETGNIRGSMKVRVPTERLGTRERLYEWISIDKDEAGAKSKAPSVSRGSQEPRSGSRKPAFTEASCPLSRLFEEPEKPPPTGRPPAPPRAAPREEPLTPRLKPEGAPEPEGVAAPPPKNSFNNPAYYVLEGVPHQLLPPEPPSPARAPVPSATKNKVAITVPAPQLGHHRHPRVGEGSSSDEESGGTLPPPDFPPPPLPDSAIFLPPSLDPLPGPVVRGRGGAEARGPPPPKAHPRPPLPPGPSPASTFLGEVASGDDRSCSVLQMAKTLSEVDYAPAGPARSALLPGPLELQPPRGLPSDYGRPLSFPPPRIRESIQEDLAEEAPCLQGGRASGLGEAGMSAWLRAIGLERYEEGLVHNGWDDLEFLSDITEEDLEEAGVQDPAHKRLLLDTLQLSK

Variants of: B1
Conditions: with epha2_human EPHA2, P29317
Sequence of epha2_human EPHA2, P29317 (P29317 whole entry): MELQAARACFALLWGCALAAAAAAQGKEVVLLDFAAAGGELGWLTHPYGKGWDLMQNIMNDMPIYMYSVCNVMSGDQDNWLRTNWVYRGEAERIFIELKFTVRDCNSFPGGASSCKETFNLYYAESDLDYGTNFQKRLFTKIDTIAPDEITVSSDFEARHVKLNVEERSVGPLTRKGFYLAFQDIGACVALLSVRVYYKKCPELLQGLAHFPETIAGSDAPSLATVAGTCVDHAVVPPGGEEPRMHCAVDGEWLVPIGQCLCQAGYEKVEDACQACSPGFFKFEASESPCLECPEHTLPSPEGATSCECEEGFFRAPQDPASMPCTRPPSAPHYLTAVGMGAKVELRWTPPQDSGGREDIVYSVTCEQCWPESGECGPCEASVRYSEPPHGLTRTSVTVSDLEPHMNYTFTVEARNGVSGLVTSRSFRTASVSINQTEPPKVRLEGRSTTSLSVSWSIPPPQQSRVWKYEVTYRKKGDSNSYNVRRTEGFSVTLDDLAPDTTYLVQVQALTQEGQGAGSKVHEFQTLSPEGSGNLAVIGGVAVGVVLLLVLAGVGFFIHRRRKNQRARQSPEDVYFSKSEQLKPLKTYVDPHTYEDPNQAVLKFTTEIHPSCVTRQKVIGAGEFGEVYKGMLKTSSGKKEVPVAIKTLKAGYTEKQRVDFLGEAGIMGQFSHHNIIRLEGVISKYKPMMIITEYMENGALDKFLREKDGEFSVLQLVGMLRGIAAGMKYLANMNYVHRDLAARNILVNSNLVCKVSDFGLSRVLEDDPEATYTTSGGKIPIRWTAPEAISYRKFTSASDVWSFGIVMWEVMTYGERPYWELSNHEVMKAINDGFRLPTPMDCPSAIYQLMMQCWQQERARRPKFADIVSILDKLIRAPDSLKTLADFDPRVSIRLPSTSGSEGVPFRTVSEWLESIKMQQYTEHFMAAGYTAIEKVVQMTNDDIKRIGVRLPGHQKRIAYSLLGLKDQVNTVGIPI

Row | effect of a mutation on the interaction | Variant
1 | disrupting interaction | D1223A;D1224A

Variants of: B1
Conditions: with epha2_human EPHA2, P29317
Remark: another data set of the same source

Row | effect of a mutation on the interaction | Variant
2 | increasing interaction | H1219S
